Source: paper PMC4872099 (Nucleic Acids Research, 2016)
Where “and” joins values, the source holds several entries; their conditions need not be identical. Equal values may be shown once.

Tests used:
[1] = target: phage T4 gp16 oligomerization domain alone (N- and C-terminal domains deleted) (bacteriophage T4); assay: SEC
SEC = target: the molecule itself; assay: SEC

Molecule	binding result (SEC)	stoichiometry N (SEC)	further results
phage T4 gp16 oligomerization domain alone (N- and C-terminal domains deleted) (domain or fragment)			stoichiometry N [1]: 11 and 12
phage T4 small terminase (TerS) gp16, wild type (natural protein, bacteriophage T4, UniProt P17311 1-164, looked up) MEGLDINKLLDISDLPGIDGEEIKVYEPLQLVEVKSNPQNRTPDLEDDYGVVRRNMHFQQQMLMDAAKIFLETAKNADSPRHMEVFATLMGQMTTTNREILKLHKDMKDITSEQVGTKGAVPTGQMNIQNATVFMGSPTELMDEIGDAYEAQEAREKVINGTTD	binds		
phage T4 gp16 N-C fusion (amino acids 36-118 deleted; lacks helix alpha1 and helix alpha2) (natural protein, bacteriophage T4, UniProt P17311 1-164, looked up) MEGLDINKLLDISDLPGIDGEEIKVYEPLQLVEVKGAVPTGQMNIQNATVFMGSPTELMDEIGDAYEAQEAREKVINGTTD		2	
phage T4 gp16 mutant 3M (R98A, K102A, K108A) (natural protein, bacteriophage T4, UniProt P17311 1-164, looked up) MEGLDINKLLDISDLPGIDGEEIKVYEPLQLVEVKSNPQNRTPDLEDDYGVVRRNMHFQQQMLMDAAKIFLETAKNADSPRHMEVFATLMGQMTTTNAEILALHKDMADITSEQVGTKGAVPTGQMNIQNATVFMGSPTELMDEIGDAYEAQEAREKVINGTTD	binds		
phage T4 gp16 mutant 4M (R98A, K102A, K105A, K108A) (natural protein, bacteriophage T4, UniProt P17311 1-164, looked up) MEGLDINKLLDISDLPGIDGEEIKVYEPLQLVEVKSNPQNRTPDLEDDYGVVRRNMHFQQQMLMDAAKIFLETAKNADSPRHMEVFATLMGQMTTTNAEILALHADMADITSEQVGTKGAVPTGQMNIQNATVFMGSPTELMDEIGDAYEAQEAREKVINGTTD		~6	
